From patent US20160083461A1 (PHILOGEN S P A, published 2016)
Where a chain is given by its changes, count along the chain named.

B1: anti-ED-A antibody B7 (scFv)
scFv: EVQLVESGGGLVQPGGSLRLSCAASGFTFSHFDMSWVRQAPGKGLEWVSAISGSGGSTYYADSVKGRFTISRDNSKNTLYLQMNSLRAEDTAVYYCAKSTHLYLFDYWGQGTLVTVSSGGGGSGGGGSGGGGSGGGGSEIVLTQSPGTLSLSPGEKATLSCRASQSVSLAFLAWYQQKPGQAPRLLIYGASSRATGIPDRFSGSGSGTDFTLTISRLEPEDFAVYYCQQMRGRPPTFGQGTKVEIKAAAEQKLISEEDLNGAA
notes: scFv; Supernatant in BIAcore analysis 1, purified monomeric fraction in BIAcore analysis 2
B2: anti-ED-A antibody B2 (scFv)
scFv: B1 scFv with H31A, F32A, D33K, L169V
notes: as for B1
B3: anti-ED-A antibody C5 (scFv)
scFv: B1 scFv with H31P, F32I, D33T, A170H
notes: as for B1
B4: anti-ED-A antibody C8 (scFv)
scFv: B1 scFv with H31L, F32Q, D33T, A170P
notes: as for B1
B5: anti-ED-A antibody D5 (scFv)
scFv: B1 scFv with H31V, F32M, D33K, L169N
notes: as for B1
B6: anti-ED-A antibody E5 (scFv)
scFv: B1 scFv with H31T, F32G, D33S, F171H
notes: scFv, tested as bacterial supernatant in BIAcore analysis 1
B7: anti-ED-A antibody E8 (scFv)
scFv: B1 scFv with H31D, F32M, D33H, L169S, A170S
notes: as for B6
B8: anti-ED-A antibody F1 (scFv)
scFv: B1 scFv with H31Q, F32A, D33R, L169A, A170P
notes: scFv, tested as bacterial supernatant (E. coli TG-1) in BIAcore analysis 1
B9: anti-ED-A antibody F8 (scFv)
scFv: B1 scFv with H31L, D33T, L169M, A170P
notes: scFv format, not the F8 diabody; Supernatant in BIAcore analysis 1, purified monomeric fraction in BIAcore analysis 2; also called anti-ED-A scFv F8
B10: anti-ED-A antibody G9 (scFv)
scFv: B1 scFv with F32M, D33Q, L169T
notes: as for B1
B11: anti-ED-A antibody H1 (scFv)
scFv: B1 scFv with H31P, F32R, D33R, L169S, F171W
notes: scFv, tested as bacterial supernatant in BIAcore analysis 1; Tags from the pHEN1 vector are not described

What was measured:
[1] = target: T1, antigen (11A12) containing the ED-A domain of human fibronectin (human, UniProt P02751 1629-1905); test: SPR (BIAcore), monomeric scFv over 11A12 immobilised on CM5 chip
T1 construct: Immobilised on a CM5 chip by amine coupling
T1 sequence (P02751 other isoform, or with tags, fused parts or gaps limits assumed): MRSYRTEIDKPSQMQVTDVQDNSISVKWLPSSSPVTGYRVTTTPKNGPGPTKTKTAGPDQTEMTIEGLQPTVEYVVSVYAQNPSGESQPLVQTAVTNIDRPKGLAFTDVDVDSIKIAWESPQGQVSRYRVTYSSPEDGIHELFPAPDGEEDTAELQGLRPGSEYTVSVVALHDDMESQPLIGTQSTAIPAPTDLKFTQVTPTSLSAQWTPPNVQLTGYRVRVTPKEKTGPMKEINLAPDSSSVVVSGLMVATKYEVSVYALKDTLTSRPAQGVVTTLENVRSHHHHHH
Method: The kₒₙ, koff and KD of the parent anti-ED-A antibody and anti-ED-A antibodies B2, C5, D5, C8, F8, B7 and G9 were evaluated using Surface Plasmon Resonance. The chip was equilibrated over night with the same buffer used during the assay at a buffer flow rate of 5 μl/min. The whole coating procedure was performed at this flow rate. The antigen 11A12 was diluted 1:25 with acetate buffer pH 4.00 (provided by BIACORE) to a final concentration of 20 μg/ml. The NHS and EDC were then mixed and 50 μl injected to activate the COOH groups on the CM5 chip. This was followed by injection of 40 μl of the antigen (this lasts about 40″). Then 30 μl of Ethanolammine were injected in order to block the reactivity of eventual free COOH.
Each sample was assayed at a flow rate 20 μl/min. 20 μl of undiluted monomeric protein (as it comes out from the gel filtration) was injected. The dissociation time was left to run for about 200″. Then 10 μl of HCl 10 mM was injected to regenerate the chip. The injection of monomeric protein was repeated at different dilutions, i.e. 1:2 dilution (in PBS) followed by regeneration with HCl. This was followed by a third injection of the protein, at a dilution of 1:4 followed again by regeneration with HCl. The kₒₙ, koff and KD values for each anti-ED-A antibody were evaluated using the BIAevaluation software.

[2] = target: T1, antigen (11A12) containing the ED-A …; test: SPR (BIAcore analysis 1), bacterial supernatant of scFv over immobilised 11A12; flatter dissociation curve than the parent
Method: The BIAcore Chip was flushed overnight at a flow rate of 5 μl/min with HBS-EP buffer BIACORE, 0.01 M Hepes pH 7.4, 0.15 M NaCl, 3 mM EDTA, 0.005% surfactant P20 (same buffer used for the assay). The antigen (11A12) was diluted to a concentration of 50 μg/ml in acetate buffer (pH 4.0) and the COOH groups on the chip were activated by injection of 50 μl of a mix of N-Hydroxy Succinimmide (NHS) and ethyl-N-(dimethylaminopropyl)-carbodiimide (EDC). 40 μl of the 11A12 antigen were injected onto the chip and the residual free COOH groups were blocked with 30 μl of ethanolamine. After a 0.22 μm filtration, 20 μl of each individual bacterial supernatant were injected onto the chip and interaction with the antigen was monitored in real time.
The association curves of antibodies H1, C5, D5, E5, C8, F8 and F1 were flatter than that observed for the parent anti-ED-A antibody while the association curve observed for antibodies B2, B7, E8 and G9 was as steep as the association curve observed for the parent anti-ED-A antibody. However, as bacterial supernatants of IFTG-induced E. coli TG-1 cells were used for the BIAcore analysis of antibodies H1, B2, C5, D5, E5, C8, F8, F1, B7, E8 and G9, the concentration of the tested antibody samples was unknown but most probably lower than the concentration of the parent anti-ED-A antibody sample used for comparison. Consequently, the association curve of antibodies H1, B2, C5, D5, E5, C8, F8, F1, B7, E8 and G9 may be artificially low due to the low concentration of antibody in the samples used for the BIAcore analysis.

| Binder | Kd [1] | koff [1] | kon [1] | binding result [2] |
| --- | --- | --- | --- | --- |
| B1 | ~0.0168 µM | 0.0045 s⁻¹ | 267000 M⁻¹ s⁻¹ |  |
| B2 | ~0.02 µM | 0.00754 s⁻¹ | 380000 M⁻¹ s⁻¹ |  |
| B3 | ~0.03 µM | 0.00923 s⁻¹ | 304000 M⁻¹ s⁻¹ |  |
| B4 | ~0.014 µM | 0.0053 s⁻¹ | 380000 M⁻¹ s⁻¹ |  |
| B5 | ~0.017 µM | 0.0076 s⁻¹ | 453000 M⁻¹ s⁻¹ |  |
| B6 |  |  |  | binds |
| B7 |  |  |  | binds |
| B8 |  |  |  | binds |
| B9 | ~0.0031 µM | 0.0014 s⁻¹ | 465000 M⁻¹ s⁻¹ |  |
| B10 | ~0.0209 µM | 0.00754 s⁻¹ | 360000 M⁻¹ s⁻¹ |  |
| B11 |  |  |  | binds |
